From patent US20080220446A1, “Method for Detecting and/or Removing Protein and/or Peptide Comprising a Cross-Beta Structure From an Aqueous Solution Comprising a Protein” (priority 2005, published 2008)

Biological target: endostatin (EntreMed, Inc.) (UniProt P39060)
Test: SPR (Biacore), Fn F4-5-His6 immobilized, endostatin at 0-800 nM, maximum RU against concentration

endostatin (EntreMed, Inc.), sequence (P39060 1572-1754): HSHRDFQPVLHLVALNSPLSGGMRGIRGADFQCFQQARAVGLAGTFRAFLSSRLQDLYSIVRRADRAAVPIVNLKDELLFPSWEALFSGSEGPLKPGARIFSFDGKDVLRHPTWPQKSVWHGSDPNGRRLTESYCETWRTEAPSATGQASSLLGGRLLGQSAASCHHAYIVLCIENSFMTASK

concentration of ligand that results in half maximum binding: 800 nM
Substance: Fn F4-5-His6 (fibronectin type I domains 4-5, expressed in S. cerevisiae) (from UniProt P02751 182-276)
